Test results taken from article PMC6743065, “Structural and functional characterization of the mitochondrial complex IV assembly factor Coa6” (Life Science Alliance, 2019).

Molecular target: the molecule itself
Assay: crystal structure; ^W59CCoa6 25 mg/ml in 20 mM Tris-MES pH 8.0, 150 mM NaCl; crystallized with 0.1 M Bis-Tris pH 5.7, 0.23 M MgCl2, 29% PEG 3350, 20°C; 2.2 Å; four molecules per asymmetric unit

Protein	binding result
pathogenic mutant protein ^W59CCoa6 (natural protein, human, five residues left at the N terminus after cleavage of the GST tag with PreScission Protease; Coa6, human; residues 47-125 of the full-length Coa6 isoform 1 (UniProtKB Q5JTJ3) with the patient mutation W59C; In the crystal, Cys59 of each chain is joined by an intermolecular disulfide to Cys59 of another chain; not shown: GST, N-terminal, cleaved) GPLGSMAAPSMKERQVCCGARDEYWKCLDENLEDASQCKKLRSSFESSCPQQWIKYFDKRRDYLKFKEKFEAGQFEPSETTAKS	binds

Molecular target: the molecule itself
Assay: SEC; analytical SEC, Superdex 200 Increase 3.2/300, 100 μg protein, 20 mM Tris-MES pH 8.0, 150 mM NaCl, 0.05 ml/min; elution volumes compared with that of ^WTCoa6

Protein	stoichiometry N
human wild-type Coa6 (^WTCoa6) (natural protein, five residues left at the N terminus after cleavage of the GST tag with PreScission Protease; Coa6, human; isoform 3, composed of residues 47-125 of the full-length Coa6 isoform 1 (UniProtKB Q5JTJ3); the N-terminal residue is numbered Met47; Fully oxidized: intramolecular disulfides Cys58-Cys90 and Cys68-Cys79; also called Coa6 isoform 3; not shown: GST, N-terminal, cleaved) GPLGSMAAPSMKERQVCWGARDEYWKCLDENLEDASQCKKLRSSFESSCPQQWIKYFDKRRDYLKFKEKFEAGQFEPSETTAKS	2
^Y97ACoa6 (natural protein, human, five residues left at the N terminus after cleavage of the GST tag with PreScission Protease; Coa6, human; residues 47-125 of the full-length Coa6 isoform 1 (UniProtKB Q5JTJ3), mutation introduced into the ^WTCoa6 ORF; not shown: GST, N-terminal, cleaved) GPLGSMAAPSMKERQVCWGARDEYWKCLDENLEDASQCKKLRSSFESSCPQQWIKAFDKRRDYLKFKEKFEAGQFEPSETTAKS	2
^Y104ACoa6 (natural protein, human, five residues left at the N terminus after cleavage of the GST tag with PreScission Protease; Coa6, human; residues 47-125 of the full-length Coa6 isoform 1 (UniProtKB Q5JTJ3), mutation introduced into the ^WTCoa6 ORF; not shown: GST, N-terminal, cleaved) GPLGSMAAPSMKERQVCWGARDEYWKCLDENLEDASQCKKLRSSFESSCPQQWIKYFDKRRDALKFKEKFEAGQFEPSETTAKS	2
^R101ACoa6 (natural protein, human, five residues left at the N terminus after cleavage of the GST tag with PreScission Protease; Coa6, human; residues 47-125 of the full-length Coa6 isoform 1 (UniProtKB Q5JTJ3), mutation introduced into the ^WTCoa6 ORF; not shown: GST, N-terminal, cleaved) GPLGSMAAPSMKERQVCWGARDEYWKCLDENLEDASQCKKLRSSFESSCPQQWIKYFDKARDYLKFKEKFEAGQFEPSETTAKS	2
^Y97A/Y104ACoa6 (natural protein, human, five residues left at the N terminus after cleavage of the GST tag with PreScission Protease; Coa6, human; residues 47-125 of the full-length Coa6 isoform 1 (UniProtKB Q5JTJ3), mutations introduced into the ^WTCoa6 ORF; not shown: GST, N-terminal, cleaved) GPLGSMAAPSMKERQVCWGARDEYWKCLDENLEDASQCKKLRSSFESSCPQQWIKAFDKRRDALKFKEKFEAGQFEPSETTAKS	2
